In this data set the test system is Escherichia coli TOP10. The data set is described as follows: shrunken log2 fold change of peptide-encoding DNA abundance (4.5 h post-induction vs induction); higher = less antimicrobial activity (less host growth inhibition). To be noted: time post-induction: 4.5 h; library: site-saturation at positions 5, 18, 19, 20.
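Also: peptides expressed intracellularly from a pBAD plasmid library in pooled LB shake-flask culture, induced with 0.3% L-arabinose, DNA abundance read by NGS, three biological replicates, DESeq2 with apeglm shrinkage.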

Take RRIRSRPPRLPRPRPRPIILPRP: the “shrunken log2 fold change” value is -0.617.

Regarding RRIRVRPPRLPRPRPRPCCHPRP, the “shrunken log2 fold change” value was -0.217.

For the sequence RRIRIRPPRLPRPRPRPVPCPRP, the “shrunken log2 fold change” value was -0.00376.

As to RRIRNRPPRLPRPRPRPLCYPRP, the “shrunken log2 fold change” value was -0.781.

As to RRIRNRPPRLPRPRPRPERWPRP, the “shrunken log2 fold change” value came to 0.699.

In the case of RRIRNRPPRLPRPRPRPTKEPRP, the “shrunken log2 fold change” value was -0.0307.

For RRIRDRPPRLPRPRPRPPEHPRP, the “shrunken log2 fold change” value is -0.0245.

With RRIRYRPPRLPRPRPRPNWVPRP, the “shrunken log2 fold change” value was -0.443.

On to RRIRERPPRLPRPRPRPCMQPRP, for which the “shrunken log2 fold change” value is -0.133.

Take RRIRHRPPRLPRPRPRPFTDPRP: the “shrunken log2 fold change” value is -0.1.

For RRIRTRPPRLPRPRPRPPHMPRP, the “shrunken log2 fold change” value is -0.101.

Consider RRIRDRPPRLPRPRPRPPNSPRP, for which the “shrunken log2 fold change” value was -0.0992.

With RRIRPRPPRLPRPRPRPVCQPRP, the “shrunken log2 fold change” value is -0.1.

As to RRIRDRPPRLPRPRPRPNTFPRP, the “shrunken log2 fold change” value was -0.0294.

RRIRRRPPRLPRPRPRPRMKPRP: the “shrunken log2 fold change” value came to 0.309.

For the sequence RRIRYRPPRLPRPRPRPDGVPRP, the “shrunken log2 fold change” value is -0.0741.

Take RRIRLRPPRLPRPRPRPMKYPRP: the “shrunken log2 fold change” value was -0.236.

Take RRIRDRPPRLPRPRPRPAMEPRP: the “shrunken log2 fold change” value is -0.0517.

As for RRIRQRPPRLPRPRPRPHGYPRP, the “shrunken log2 fold change” value is -0.138.

In the case of RRIRTRPPRLPRPRPRPRKWPRP, the “shrunken log2 fold change” value was 0.215.

Turning to RRIRERPPRLPRPRPRPWMMPRP, the “shrunken log2 fold change” value is -0.139.

Turning to RRIRARPPRLPRPRPRPIWHPRP, the “shrunken log2 fold change” value is 0.331.

Regarding RRIRKRPPRLPRPRPRPDICPRP, the “shrunken log2 fold change” value stood at 0.0913.

Turning to RRIRYRPPRLPRPRPRPSDSPRP, the “shrunken log2 fold change” value was -0.191.

Turning to RRIRIRPPRLPRPRPRPEYYPRP, the “shrunken log2 fold change” value is -0.198.

Regarding RRIRVRPPRLPRPRPRPNFYPRP, the “shrunken log2 fold change” value was -0.146.

With RRIRDRPPRLPRPRPRPRSWPRP, the “shrunken log2 fold change” value stood at 0.131.

Consider RRIRWRPPRLPRPRPRPYDEPRP, for which the “shrunken log2 fold change” value is -0.114.

For RRIRHRPPRLPRPRPRPLACPRP, the “shrunken log2 fold change” value stood at 0.0188.

With RRIRARPPRLPRPRPRPKAKPRP, the “shrunken log2 fold change” value amounted to 0.287.

With RRIRARPPRLPRPRPRPVKCPRP, the “shrunken log2 fold change” value is 0.03.

RRIRLRPPRLPRPRPRPPNGPRP: the “shrunken log2 fold change” value is -0.0536.

Consider RRIRRRPPRLPRPRPRPEHWPRP, for which the “shrunken log2 fold change” value is 0.315.

On to RRIRSRPPRLPRPRPRPYAKPRP, for which the “shrunken log2 fold change” value is -0.123.

For RRIRHRPPRLPRPRPRPQRKPRP, the “shrunken log2 fold change” value is -0.191.

Turning to RRIRYRPPRLPRPRPRPKMPPRP, the “shrunken log2 fold change” value is -0.206.

With RRIRARPPRLPRPRPRPTGCPRP, the “shrunken log2 fold change” value was 0.458.

Consider RRIRRRPPRLPRPRPRPPWHPRP, for which the “shrunken log2 fold change” value came to 0.516.

Take RRIRYRPPRLPRPRPRPQPEPRP: the “shrunken log2 fold change” value is 0.239.

For RRIRYRPPRLPRPRPRPDVSPRP, the “shrunken log2 fold change” value is -0.248.

RRIRNRPPRLPRPRPRPWGGPRP: the “shrunken log2 fold change” value is -0.113.

As for RRIRVRPPRLPRPRPRPKVCPRP, the “shrunken log2 fold change” value is -0.0503.

For the sequence RRIRHRPPRLPRPRPRPMWLPRP, the “shrunken log2 fold change” value is -0.362.

Take RRIRTRPPRLPRPRPRPEKNPRP: the “shrunken log2 fold change” value is 0.0495.

Consider RRIRDRPPRLPRPRPRPQKEPRP, for which the “shrunken log2 fold change” value is -0.0595.

Take RRIRTRPPRLPRPRPRPWMVPRP: the “shrunken log2 fold change” value is -0.208.

Take RRIRPRPPRLPRPRPRPTMIPRP: the “shrunken log2 fold change” value is -0.239.

For RRIRLRPPRLPRPRPRPPYPPRP, the “shrunken log2 fold change” value was -0.0316.

Regarding RRIRWRPPRLPRPRPRPPGLPRP, the “shrunken log2 fold change” value is 0.601.

For the sequence RRIRARPPRLPRPRPRPLNIPRP, the “shrunken log2 fold change” value was found to be 0.0473.

In the case of RRIRGRPPRLPRPRPRPHRTPRP, the “shrunken log2 fold change” value amounted to 0.271.

In the case of RRIRWRPPRLPRPRPRPLRNPRP, the “shrunken log2 fold change” value turned out to be 0.847.

As to RRIRGRPPRLPRPRPRPQVAPRP, the “shrunken log2 fold change” value came out at 0.34.

Turning to RRIRLRPPRLPRPRPRPPFVPRP, the “shrunken log2 fold change” value worked out at 0.00109.

Regarding RRIRWRPPRLPRPRPRPIRNPRP, the “shrunken log2 fold change” value was -0.334.

As to RRIRRRPPRLPRPRPRPLLLPRP, the “shrunken log2 fold change” value worked out at 0.0522.

As to RRIRTRPPRLPRPRPRPYTWPRP, the “shrunken log2 fold change” value was -0.465.

Take RRIRERPPRLPRPRPRPRPLPRP: the “shrunken log2 fold change” value is 0.176.

On to RRIRHRPPRLPRPRPRPNPAPRP, for which the “shrunken log2 fold change” value is -0.0505.

On to RRIRKRPPRLPRPRPRPKANPRP, for which the “shrunken log2 fold change” value came out at 0.768.

Consider RRIRHRPPRLPRPRPRPGDEPRP, for which the “shrunken log2 fold change” value was -0.492.

Consider RRIRVRPPRLPRPRPRPMEVPRP, for which the “shrunken log2 fold change” value is -0.997.

As for RRIRHRPPRLPRPRPRPTSFPRP, the “shrunken log2 fold change” value is 0.0399.

Take RRIRIRPPRLPRPRPRPVLKPRP: the “shrunken log2 fold change” value was -0.234.

Regarding RRIRARPPRLPRPRPRPIDHPRP, the “shrunken log2 fold change” value is -0.00706.

As for RRIRNRPPRLPRPRPRPWDPPRP, the “shrunken log2 fold change” value is -0.00879.

RRIRVRPPRLPRPRPRPGHFPRP: the “shrunken log2 fold change” value worked out at 0.136.

As to RRIRDRPPRLPRPRPRPEWHPRP, the “shrunken log2 fold change” value came out at 0.623.

With RRIRERPPRLPRPRPRPMIKPRP, the “shrunken log2 fold change” value was -1.07.

As to RRIRTRPPRLPRPRPRPDLVPRP, the “shrunken log2 fold change” value is -0.0188.

Regarding RRIRMRPPRLPRPRPRPEPCPRP, the “shrunken log2 fold change” value came out at 1.13.

As for RRIRKRPPRLPRPRPRPFQEPRP, the “shrunken log2 fold change” value came to 0.149.

For RRIRARPPRLPRPRPRPDHMPRP, the “shrunken log2 fold change” value is -0.328.

Take RRIRWRPPRLPRPRPRPGFGPRP: the “shrunken log2 fold change” value is 0.651.

On to RRIRLRPPRLPRPRPRPYYPPRP, for which the “shrunken log2 fold change” value was -0.117.

RRIRFRPPRLPRPRPRPGAQPRP: the “shrunken log2 fold change” value was 0.247.

RRIRERPPRLPRPRPRPIHCPRP: the “shrunken log2 fold change” value is -0.118.

As for RRIRIRPPRLPRPRPRPLNRPRP, the “shrunken log2 fold change” value is -0.476.

Turning to RRIRARPPRLPRPRPRPMIYPRP, the “shrunken log2 fold change” value was found to be 0.00125.

Regarding RRIRKRPPRLPRPRPRPNKWPRP, the “shrunken log2 fold change” value was -0.0156.

In the case of RRIRYRPPRLPRPRPRPWICPRP, the “shrunken log2 fold change” value was -0.593.

With RRIRFRPPRLPRPRPRPWLEPRP, the “shrunken log2 fold change” value worked out at 0.0931.

Regarding RRIRCRPPRLPRPRPRPNRCPRP, the “shrunken log2 fold change” value amounted to 0.053.

As to RRIRYRPPRLPRPRPRPCFIPRP, the “shrunken log2 fold change” value is -0.321.

Consider RRIRNRPPRLPRPRPRPKQSPRP, for which the “shrunken log2 fold change” value was -0.135.

With RRIRDRPPRLPRPRPRPFGYPRP, the “shrunken log2 fold change” value is -0.342.

Turning to RRIRHRPPRLPRPRPRPGRYPRP, the “shrunken log2 fold change” value is -0.017.

For RRIRQRPPRLPRPRPRPEAPPRP, the “shrunken log2 fold change” value stood at 0.6.

For RRIRTRPPRLPRPRPRPINCPRP, the “shrunken log2 fold change” value was 0.00543.

In the case of RRIRTRPPRLPRPRPRPMWQPRP, the “shrunken log2 fold change” value was found to be 0.0135.

Take RRIRFRPPRLPRPRPRPREYPRP: the “shrunken log2 fold change” value is -0.415.

Regarding RRIRSRPPRLPRPRPRPWIPPRP, the “shrunken log2 fold change” value is -0.119.

For RRIRWRPPRLPRPRPRPLGAPRP, the “shrunken log2 fold change” value was determined as 0.483.

Regarding RRIRYRPPRLPRPRPRPNAGPRP, the “shrunken log2 fold change” value is -0.31.

In the case of RRIRTRPPRLPRPRPRPSINPRP, the “shrunken log2 fold change” value is -0.63.

With RRIRQRPPRLPRPRPRPQLYPRP, the “shrunken log2 fold change” value amounted to 0.119.

Consider RRIRRRPPRLPRPRPRPALRPRP, for which the “shrunken log2 fold change” value stood at 0.648.

As for RRIRFRPPRLPRPRPRPSYFPRP, the “shrunken log2 fold change” value is -0.479.

As for RRIRERPPRLPRPRPRPTVSPRP, the “shrunken log2 fold change” value is -0.137.

As for RRIRTRPPRLPRPRPRPEKDPRP, the “shrunken log2 fold change” value is -0.271.

Take RRIRMRPPRLPRPRPRPEAGPRP: the “shrunken log2 fold change” value stood at 2.36.

As to RRIRVRPPRLPRPRPRPNWHPRP, the “shrunken log2 fold change” value is -0.0428.

In the case of RRIRCRPPRLPRPRPRPQHLPRP, the “shrunken log2 fold change” value is -0.0397.

With RRIRSRPPRLPRPRPRPYTKPRP, the “shrunken log2 fold change” value was -0.202.

For RRIRDRPPRLPRPRPRPYTQPRP, the “shrunken log2 fold change” value is -0.165.

For the sequence RRIRQRPPRLPRPRPRPGDFPRP, the “shrunken log2 fold change” value was -0.179.

Regarding RRIRIRPPRLPRPRPRPNFTPRP, the “shrunken log2 fold change” value is -0.545.

In the case of RRIRNRPPRLPRPRPRPAATPRP, the “shrunken log2 fold change” value came to 0.285.

On to RRIRTRPPRLPRPRPRPQDMPRP, for which the “shrunken log2 fold change” value is -0.48.

As to RRIRSRPPRLPRPRPRPQFKPRP, the “shrunken log2 fold change” value was -0.239.

RRIRDRPPRLPRPRPRPDSHPRP: the “shrunken log2 fold change” value was 0.0162.

In the case of RRIRHRPPRLPRPRPRPEVNPRP, the “shrunken log2 fold change” value was 0.062.

In the case of RRIRMRPPRLPRPRPRPIWPPRP, the “shrunken log2 fold change” value is 0.769.

As to RRIRMRPPRLPRPRPRPKCIPRP, the “shrunken log2 fold change” value is -0.113.

Take RRIRCRPPRLPRPRPRPTYHPRP: the “shrunken log2 fold change” value was -0.815.

As for RRIRYRPPRLPRPRPRPAQFPRP, the “shrunken log2 fold change” value amounted to 0.0198.

In the case of RRIRRRPPRLPRPRPRPIADPRP, the “shrunken log2 fold change” value is -0.0686.

On to RRIRGRPPRLPRPRPRPYSKPRP, for which the “shrunken log2 fold change” value was -0.2.

Consider RRIRFRPPRLPRPRPRPWKYPRP, for which the “shrunken log2 fold change” value is -0.411.

With RRIRSRPPRLPRPRPRPTGMPRP, the “shrunken log2 fold change” value was 0.0395.

Consider RRIRVRPPRLPRPRPRPTSNPRP, for which the “shrunken log2 fold change” value is -0.296.

For RRIRKRPPRLPRPRPRPQFTPRP, the “shrunken log2 fold change” value is -0.0285.

On to RRIRMRPPRLPRPRPRPDHIPRP, for which the “shrunken log2 fold change” value was -0.000611.

RRIRHRPPRLPRPRPRPIQLPRP: the “shrunken log2 fold change” value is 0.128.

For the sequence RRIRMRPPRLPRPRPRPDMKPRP, the “shrunken log2 fold change” value was determined as 0.182.

Source of the values: the supplement of paper PMC9112550, “Optimization of the antimicrobial peptide Bac7 by deep mutational scanning” (BMC Biology, 2022).
